Legend:
[1] = molecular target: TssK (V. cholerae (endogenous)); test: cryo-EM structure
[2] = molecular target: VgrG trimer of the central spike (V. cholerae (endogenous)); test: cryo-EM structure

In the case of TssK (natural protein), the stoichiometry N [1] is reported as 3.
VgrG trimer of the central spike showed a stoichiometry N [2] of 3.
